Data: paper PMC7803729 (Nature Communications, 2021)

Biological target: SARS-CoV-2 S protein RBD (Arg319-Asn536) with a polyhistidine tag at the C-terminus, manufactured by Celltrion (SARS-CoV-2, Wuhan-Hu-1 (YP_009724390.1), UniProt P0DTC2)
Assay: SPR
Settings: both partners purified

B1: CT-P59 monoclonal antibody, full-length fully human IgG (antibody, V domains shown)
VH: QITLKESGPTLVKPTQTLTLTCSFSGFSLSTSGVGVGWIRQPPGKALEWLALIDWDDNKYHTTSLKTRLTISKDTSKNQVVLTMTNMDPVDTATYYCARIPGFLRYRNRYYYYGMDVWGQGTTVTVSS
VL: ELVLTQPPSVSAAPGQKVTISCSGSSSNIGNNYVSWYQQLPGTAPKLLIYDNNKRPSGIPDRFSGSKSGTSATLGITGLQTGDEADYYCGTWDSSLSAGVFGGGTELTVL
B1 showed a Kd of 27 pM.
